Assay results: the DeepSol protein solubility set

Experiment: soluble on expression in E. coli; label from the status in PepcDB or PDB records

Q: Which “soluble on expression in E. coli” value does the source give for “MSLNSAIKDIEIIEMGEKLRETSSPWSSTILLVKLTSADGLVGYGEAPTTLMTLPVLESMKEVARVFKGKDFFNVEQNVFDFYRNSFYLPVSMEATSALSAFEIASWDLIGKELGTPVYKLIGGEVNHNIRAYANGWYNDCVTPDDFVKKAKEVVKMGFTAMKFDPFGDNYDTITNEGIENARNIVGALRSEFGEKVDLLIEYHGRFSKIAAIKAGMALEEFKPYFYEEPLHPDLDHDLLDLKQYYKVPIALGERVLNKKIFARFISQKLVDIIQPDLTNSGGILEAKKIAAIADGFGIPIAPHNAFGPIQTAATLNVDTTLTNFAIQESFEMFWPDWKKNLMASGYKLENGYFRLTGDAGIGKVNESIVEKYQVSGMEPFDDKEPPWVVSGTFKHYQQKEGHHHHHH” here?
A: Its value is “not soluble”.

Q: With “MSLNSFNLEGKVALVTGCKRGIGKAMAVALAQAGVDVIGVSASLESEGSDVAKAVEATGRKFSAYKCDFNSREAIYTFIEQVKAAHPVIDILVNNAGTILRAPAAEHGDSLWDEVINVNLNSQFILSRELGREMVKRGSGKVIFTASLLTFQGGITVPGYAASKGAIGQLTKALANEWAGSGVNVNAIAPGYIATDNTQALRDDPERATSILSRIPQNRWGKPEDFAGPVVFLASEAASYVNGSVMVVDGGWMGREGHHHHHH” as the sequence, how does the “soluble on expression in E. coli” value read?
A: Its value is “not soluble”.

Q: With “MSLNSLLLVSRIYQQTCIDDLAQLANEVKASFVRLVNEDANSHMIGTAMSTIGRAFTQRIIELVEAELGAAPLPYCFVAFGSMGRDEQLIVTDQDNALILDDRYDVQQHGAYFAQFAELVCRGLDRCGYPLCDGEIMASNPKWRMTRKEWETCFADWIDNPNPQALLNASIFFDLDGVYGRTKWAEQLSGFIVRRARRNQRFLACLARNALNRTPPLGFFKNFVMEKDGRHNNSINLKRRGTAPLADLIRVHALAAGSRAKNSFERLDDVIEAGLLPQGKGKDLRDALEFIAMVRIRHQAIDVEQEREADNSIEPEHLSDFERRNLKDAFQILSNGQNYLKYRYQANQHFKEGHHHHHH” as the sequence, how does the “soluble on expression in E. coli” value read?
A: Its value is “soluble”.

Q: Which “soluble on expression in E. coli” value does the source give for “MSLNSNTEKRIALISVHGDPAIEIGKEEAGGQNVYVREVGKALAQLGWQVDMFSRKVSPEQELIVHHSPLCRTIRLTAGPEEFVPRDNGFKYLPEFVQQLLRFQKENNVNYPLVHTNYWLSSWVGMQLKAIQGSKQVHTYHSLGAVKYKSIDTIPLVATKRLSVEKQVLETAERIVATSPQEQQHMRSLVSTKGYIDIVPCGTDIHRFGSIARQAARAELGIDQEAKVVLYVGRFDQRKGIETLVRAMNESQLRDTNKLKLIIGGGSTPGNSDGRERDRIEAIVQELGMTEMTSFPGRLSQDVLPAYYAAADVCVVPSHYEPFGLVAIEAMASGTPVVASDVGGLQFTVVSEKTGLLVPPKDIAAFNIAIDRILMNPQWRDELGLAARKHVTHKFGWEGVASQLDGIYTQLLTQQVKEPALVTKEGHHHHHH” here?
A: The value was “soluble”.

Q: For “MSLNTQQGLDEIERIAADETVVANVESEAEVKMAETIPVETPPAVVPSVDDSSLYIHRELSQLQFNIRVLEQALDESYPLLERLKFLLIFSSNLDEFFEIRIAGLKKQITFAREQAGADGLLPHQALARISELVHEQVSRQYRILNETLLPELAKHQIRFIRRRHWTLKIKTWVRRFFRDEIAPIITPIGLDPTHPFPLLVNKSLNFIVELEGMDAFGRDSGLAIIPAPRLLPRIIRLPEDVGGEGDNYVFLSSMIHAHADDLFPGMKVKGCYQFRLTRNADLSVDTEDVEDLARALRGELFSRRYGDAVRLEVVDTCPQNLTNYLLKQFGLSESELYKVSGPVNLTRLFSVTGLESHPELQYPPFTPAIPRLLQKKENLFNVLSKLDVLLMHPFESFTPVIDLLRQAAKDPNVLAIKQTLYRSGANSEIVDALVEAARNGKEVTAVIELRARFDEESNLQLASRLQQAGAVVIYGVVGFKTHAKMMLILRREDGELRRYAHLGTGNYHAGNARLYTDYSLLTADVALCEDLHKLFNQLIGMGKTLRMKKLLHAPFTLKKNLLEMINREAAQAALGQPAHIMAKVNSLTDPKVIRALYKASQAGVRIDLVVRGMCCLRPGIPGVSHNIHVRSIIGRFLEHSRIYYFLNGGDEKLYLSSADWMERNLDMRVETCFPVEGKKLVQRVKKELETYLTDNTQAWVLQADGSYQRLSPTGNQNPRNTQATLLEKLAAPVLTAREGHHHHHH”, which “soluble on expression in E. coli” value is on record?
A: Its value is “soluble”.

Q: For “MSLNTVIADFTERAGTGRVLKAEPEAIQLAPEQTALIVVDMQNAYTSIGGYLDLAGFDVSKTKPVVENIQKAVTAAHAAGIQVIYFKNGWDNQYVEAGGAGSPNFHKSNALKTMRKQPELQGKLLAKGGWDFELIDELQPKSQDIVIEKPRYSGFFNTALDSMLRARGIRNLVFVGIATNVCVESTLRDGFFLEYFGVALDDACYQAGPVEMHRASMYNIKTFFGWVSDTEGHHHHHH”, which “soluble on expression in E. coli” value is on record?
A: Its value is “not soluble”.

Q: Which “soluble on expression in E. coli” value does the source give for “MSLNYRFRFAPYQRPFKTPLQTHHGLWTVREGIMLSLRDERGRITQGEIVPLPWFGTETLEEAIAFCAAFGGNITSEQIAAIPDALPACQFGFETAQLNLASTENLVSLPPTKFCQLIRRSPTMFQDLQTLLQQGFRTFKLKIALDIPATEIALCQQILETLPADGRLRLDANGGLTLEQVKQWLDWGESQAKLEFIEQPLAPAHFSNLLQLNAEFQTQIALDESVSQVASLEHCYAQGWRGVFVIKLAIAGFPSRLQDVCQTKKLDFVLSTVFETAVGQRALLNFSQDFVQSRRALGMGGTQWIEGHHHHHH” here?
A: The value was “soluble”.

Q: With “MSLPHVILTVLSTRDATGYDITKEFSASIGYFWKASHQQVYRELNKMGEQGLVTCVLEPQEGKPDRKVYSITQAGRSALGEWFDQPTAHPTVRDEFSAKLMACSVQSAEPYRLQLAELVEESRKLVAHYQEIEAAYYANPAVLDKQQRLERLTLRRNLLVRQAWIQWADEVLAELNAMA” as the sequence, how does the “soluble on expression in E. coli” value read?
A: Its value is “soluble”.

Q: For “MSLPINVPSGLPAVKVLAKEGIFVMTEKRAIHQDIRPLEILILNLMPDKIKTEIQLLRLLGNTPLQVNVTLLYTETHKPKHTPIEHILKFYTTFSAVKDRKFDGFIITGAPVELLPFEEVDYWEELTEIMEWSRHNVYSTMFICWAAQAGLYYFYGIPKYELPQKLSGVYKHRVAKDSVLFRGHDDFFWAPHSRYTEVKKEDIDKVPELEILAESDEAGVYVVANKSERQIFVTGHPEYDRYTLRDEYYRDIGRNLKVPIPANYFPNDDPTKTPILTWWSHAHLFFSNWLNYCIYQKTPYRLEDIHEGHHHHHH”, which “soluble on expression in E. coli” value is on record?
A: The value was “soluble”.

Q: For “MSLPRGLELLIAQTILQGFDAQYGRFLEVTSGAQQRFEQADWHAVQQAMKNRIHLYDHHVGLVVEQLRCITNGQSTDAAFLLRVKEHYTRLLPITRASRLRRAFLTPCTVGYLTTARLLPSGFLSLALSQSAAFVPFPPAGQRLSPRSRLGISTDARYQRPTAAPAWQNKSRDIHYIIRHLTETLGTDNLAESHLQVANELFYRNKAAWLVGKLITPSGTLPFLLPIHQTDDGELFIDTCLTTTAEASIVFGFARSYFMVYAPLPAALVEWLREILPGKTTAELYMAIGCQKHAKTESYREYLVYLQGCNEQFIEAPGIRGMVMLVFTLPGFDRVFKVIKDRFAPQKEMSAAHVRACYQLVKEHDRVGRMADTQEFENFVLEKRHISPALMELLLQEAAEKITDLGEQIVIRHLYIERRMVPLNIWLEQVEGQQLRDAIEEYGNAIRQLAAANIFPGDMLFKNFGVTRHGRVVFYDYDEICYMTEVNFRDIPPPRYPEDELASEPWYSVSPGDVFPEEFRHWLCADPRIGPLFEEMHADLFRADYWRALQNRIREGHVEDVYAYRRRQRFSVRYGEMLFEGHHHHHH”, which “soluble on expression in E. coli” value is on record?
A: Its value is “not soluble”.

Q: Which “soluble on expression in E. coli” value does the source give for “MSLQARVAAPVVAKEREELVDRIEGETSAADELEKSVDELRDDVDARRREALEKSGDGDRSDLVGILSGAVEVHGPGVKLVVNDAKDVATGADGQPRGTSGFSDTGRVRDRDMQRVVNGLWESGAEAISVNGQRLTALSAIRAAGDAILVDNRPLVPPYTVLAVGDGERLSRGFQDSADGLYLHALEESYGIRTAISVADDLKLPAAPSVIVRTAQPITEKGTSEGHHHHHH” here?
A: Its value is “soluble”.

Q: With “MSLQDLATLYPQKTWSVVNQQFSADQGQLAFAHANTLLALTKECQQPIIHFWTLEKTVILGMMDTKLPELTAATDQLTAAGYHYFVRNAGGLGIVADTGILNLGFYLPEVADHLSINAAYELMKTLFSETFNTSNITIEHFEVQHSYCPGEYDLSINGQKFAGIAQRRSKNGIAILLYASIEGDQQARGTLMQHFYQAGKAQQQTRWTFPDVHPETMANLADLLHQPLTVASVSQQLSASLQSNSGLTLQSDLQTLMQEADYQTQLTKNTQLLRRYQPGYQPEGHHHHHH” as the sequence, how does the “soluble on expression in E. coli” value read?
A: The value was “soluble”.
